Data as given in EP1514558A1.

Target: recombinant MARK2, expressed in E. coli (Rattus norvegicus (Rat)) (UniProt O08679)
Assay: cell-based or functional assay

recombinant MARK2, expressed in E. coli (Rattus norvegicus (Rat)), sequence (O08679 1-722, tags left off): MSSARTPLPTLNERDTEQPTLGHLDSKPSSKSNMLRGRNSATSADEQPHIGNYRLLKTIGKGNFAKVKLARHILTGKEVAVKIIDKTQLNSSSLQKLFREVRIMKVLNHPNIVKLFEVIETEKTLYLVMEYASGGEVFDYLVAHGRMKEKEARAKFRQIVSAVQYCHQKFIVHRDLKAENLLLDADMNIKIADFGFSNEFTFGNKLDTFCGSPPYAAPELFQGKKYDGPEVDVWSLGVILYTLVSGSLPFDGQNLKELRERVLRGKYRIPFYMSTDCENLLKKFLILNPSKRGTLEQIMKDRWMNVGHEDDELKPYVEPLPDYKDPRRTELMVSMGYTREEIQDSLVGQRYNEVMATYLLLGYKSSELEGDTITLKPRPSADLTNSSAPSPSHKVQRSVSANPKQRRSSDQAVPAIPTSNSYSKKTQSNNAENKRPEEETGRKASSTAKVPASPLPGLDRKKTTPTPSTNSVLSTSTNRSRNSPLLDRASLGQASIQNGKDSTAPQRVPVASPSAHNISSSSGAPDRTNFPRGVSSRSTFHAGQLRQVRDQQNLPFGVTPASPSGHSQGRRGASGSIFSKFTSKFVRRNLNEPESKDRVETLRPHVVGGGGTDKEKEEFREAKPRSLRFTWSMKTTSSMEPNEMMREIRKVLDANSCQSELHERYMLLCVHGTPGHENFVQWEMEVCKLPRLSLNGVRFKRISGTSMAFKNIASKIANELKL

Row | Substance | activation of MARK2 (Fig. 4B) [fold] | activation of MARK2 by fraction 14 [fold]
1 | recombinant MARKK (His10-tagged at the N-terminus), expressed in Sf9 cells (from UniProt O88664 1-1001) (enzyme) | 10 | 
2 | MARK-activating factor (MAF) purified from porcine brain |  | 10
